US20090311283A1

What was measured:
[1] = molecular target: HLA-DR5w11 (DRB1*1101) (human)
[2] = molecular target: HLA-DR7 (DRB1*0701) (human)
[3] = molecular target: T1, HLA-DR1 (DRB1*0101) (human); experiment: 125I-probe competition on purified DR1; ratio vs standard 515.01 (IC50 5.0 nM)
T1 chain 1: not shown
T1 chain 2: not shown

[4] = molecular target: T2, HLA-DR4w4 (DRB1*0401) (human); experiment: 125I-probe competition on purified DR4w4; ratio vs standard 515.01 (IC50 45 nM)
T2 chain 1: not shown
T2 chain 2: not shown

[5] = molecular target: T3, HLA-DRw53 (DRB4*0101) (human); experiment: 125I-probe competition on purified DRw53; ratio vs standard 717.01 (IC50 58 nM)
T3 chain 1: not shown
T3 chain 2: not shown

[6] = molecular target: T4, HLA-DR5w11 (DRB1*1101) (human); experiment: inhibition of 125I probe peptide binding to purified HLA-DR, gel filtration; conditions: remark: other sources report otherwise
T4 chain 1: not shown
T4 chain 2: not shown

[7] = molecular target: T1, HLA-DR1 (DRB1*0101) (human); experiment: as above; conditions: remark: other sources report otherwise
[8] = molecular target: T4, HLA-DR5w11 (DRB1*1101) (human); experiment: competition with 125I probe peptide for purified HLA-DR, gel filtration
[9] = molecular target: T5, HLA-DR8w2 (DRB1*0802) (human); experiment: as above
T5 chain 1: not shown
T5 chain 2: not shown

[10] = molecular target: HLA-DR5w12 (DRB1*1201) (human); experiment: as above
[11] = molecular target: T2, HLA-DR4w4 (DRB1*0401) (human); experiment: as above
[12] = molecular target: HLA-DR9 (DRB1*0901) (human); experiment: as above
[13] = molecular target: T1, HLA-DR1 (DRB1*0101) (human); experiment: as above
[14] = molecular target: T3, HLA-DRw53 (DRB4*0101) (human); experiment: as above
[15] = molecular target: T6, HLA-DR6w19 (DRB1*1302) (human); experiment: as above
T6 chain 1: not shown
T6 chain 2: not shown

[16] = molecular target: T7, HLA-DR7 (DRB1*0701) (human); experiment: as above
T7 chain 1: not shown
T7 chain 2: not shown

HLA-B*5401 (human) = experiment: competition vs 125I probe peptide, purified HLA, gel filtration; conditions: remark: other sources report otherwise
HLA-B*3501 (human) = experiment: as above; conditions: remark: other sources report otherwise
HLA-A*2401 (human) = experiment: competition with 125I-labelled probe peptide ([..]) for purified HLA, gel filtration; relative to standard peptide 979.02
HLA-A*0101 (Human) = conditions: remark: other sources report otherwise
HLA-DRB1*0101 (human) = molecular target: T8, HLA-DRB1*0101 (human)
T8 chain 1: not shown
T8 chain 2: not shown

HLA-DRB4*0101 (human) = molecular target: T9, HLA-DRB4*0101 (human)
T9 chain 1: not shown
T9 chain 2: not shown

HLA-B*0702 (human) = experiment: competition vs 125I probe peptide, purified HLA, gel filtration; conditions: remark: other sources report otherwise
HLA-DRB1*0701 (human) = molecular target: T10, HLA-DRB1*0701 (human)
T10 chain 1: not shown
T10 chain 2: not shown

HLA-DRB1*0401 (human) = molecular target: T11, HLA-DRB1*0401 (human)
T11 chain 1: not shown
T11 chain 2: not shown

WPKFAVPNLQSLTNL (modifications not checked) [HBV POL exemplary 15-mer …]
binding affinity ratio (standard IC50 / test IC50) [1]: 0.0002
binding affinity ratio (standard IC50 / test IC50) [2]: 0.0008
binding affinity ratio (standard IC50 / test IC50) [3]: 0.0007
binding affinity ratio (standard IC50 / test IC50) [4]: 0.0023
binding affinity ratio (standard IC50 / test IC50) [5]: 0.018

CSVVRRAFPHCLAFS (modifications not checked) [HBV POL peptide …]
binding affinity ratio (relative to standard peptide) [6]: 0.0008
binding affinity ratio (relative to standard peptide) [7]: 0.1

FVQWFVGLSPTVWLS (modifications not checked) [HBV ENV 342 peptide …]
relative binding (IC50 of standard peptide / IC50 of test peptide) [8]: 0.0072
relative binding (IC50 of standard peptide / IC50 of test peptide) [9]: 0.018
relative binding (IC50 of standard peptide / IC50 of test peptide) [10]: 0.0021
relative binding (IC50 of standard peptide / IC50 of test peptide) [11]: 0.013
relative binding (IC50 of standard peptide / IC50 of test peptide) [12]: 0.041
relative binding (IC50 of standard peptide / IC50 of test peptide) [13]: 0.47
relative binding (IC50 of standard peptide / IC50 of test peptide) [14]: 0.0044
relative binding (IC50 of standard peptide / IC50 of test peptide) [15]: 0.019
relative binding (IC50 of standard peptide / IC50 of test peptide) [16]: 0.069

FPDHQLDPA (modifications not checked) [Peptide 16.0006 (HBV ENV 25, …)]
IC50 (HLA-B*5401 (human)): 12 nM
IC50 (HLA-B*3501 (human)): 8000 nM

KFAVPNLQSL (modifications not checked) [HBV POL 395 …]
binding affinity ratio (IC50 of the standard peptide / IC50 of the test peptide) (HLA-A*2401 (human)): 0.002

ILRGTSFVY (modifications not checked) [HBV POL 760 peptide …]
binding affinity ratio (IC50 of the standard peptide / IC50 of the test peptide) (HLA-A*0101 (Human)): 0.0017

AEDLNLGNLNVSIPW (modifications not checked) [… (HBV POL 38, 15-mer)]
binding affinity ratio (IC50 of standard peptide / IC50 of test peptide) (HLA-DRB1*0101 (human)): 0.0001
binding affinity ratio (IC50 of standard peptide / IC50 of test peptide) (HLA-DRB4*0101 (human)): 0.017

VPSALNPA (modifications not checked) [Peptide 19.0016 (HBV POL 769, VPSALNPA)]
IC50 (HLA-B*5401 (human)): 10 nM
IC50 (HLA-B*0702 (human)): 3000 nM

DLNLGNLNVSIPWTH (modifications not checked) [… (HBV POL 40, 15-mer)]
binding affinity ratio (IC50 of standard peptide / IC50 of test peptide) (HLA-DRB1*0101 (human)): 0.0038
binding affinity ratio (IC50 of standard peptide / IC50 of test peptide) (HLA-DRB1*0701 (human)): 0.001
binding affinity ratio (IC50 of standard peptide / IC50 of test peptide) (HLA-DRB1*0401 (human)): 0.024
